Laboratory results published in publication PMC4048260.

Legend:
[1] = target: NL4-3 gp140 trimer (soluble, uncleaved gp140 from the X4 HIV-1 subtype B strain NL4-3) (HIV-1 (subtype B, strain NL4-3)); test: negative-stain electron microscopy, single particle 3D reconstruction; purified trimers, ~0.02 mg/ml, 2% uranyl formate, about 3,000 particles per data set, C3 symmetry applied, resolution ~25 Å
[2] = target: NL4-3/ADA gp140 trimer (hybrid: NL4-3 gp140 with the V3 spanning region of the R5 strain ADA) (HIV-1 (subtype B, strain NL4-3) | HIV-1 (subtype B, strain ADA)); test: as above

Substance	stoichiometry N [1]	stoichiometry N [2]
NL4-3 gp140 trimer (soluble, uncleaved gp140 from the X4 HIV-1 subtype B strain NL4-3) (domain or fragment)	3	–
NL4-3/ADA gp140 trimer (hybrid: NL4-3 gp140 with the V3 spanning region of the R5 strain ADA) (domain or fragment)	–	3
